For assay [1], the target named is T1, recombinant hMCAM-His (human, UniProt P43121 24-559).
T1 construct: not shown: His tag
T1 chain: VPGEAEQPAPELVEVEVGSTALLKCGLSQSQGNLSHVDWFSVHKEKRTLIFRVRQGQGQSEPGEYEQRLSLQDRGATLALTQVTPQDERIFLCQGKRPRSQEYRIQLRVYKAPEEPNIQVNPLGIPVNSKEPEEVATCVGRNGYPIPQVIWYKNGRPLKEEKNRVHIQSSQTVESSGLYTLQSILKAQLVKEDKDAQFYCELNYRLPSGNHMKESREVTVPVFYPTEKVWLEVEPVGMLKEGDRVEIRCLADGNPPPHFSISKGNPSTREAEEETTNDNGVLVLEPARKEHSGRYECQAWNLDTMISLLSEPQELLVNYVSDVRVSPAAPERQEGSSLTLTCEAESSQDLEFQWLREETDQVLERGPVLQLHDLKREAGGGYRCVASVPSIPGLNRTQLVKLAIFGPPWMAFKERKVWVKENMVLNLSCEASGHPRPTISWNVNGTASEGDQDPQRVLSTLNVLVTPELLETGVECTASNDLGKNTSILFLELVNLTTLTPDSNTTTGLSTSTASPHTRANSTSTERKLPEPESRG
The experiment in a line: ForteBio Octet Red, hMCAM-His analyte; Forte column 1; vs rodent 1749. A digest of the protocol:
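Humanized antibodies were captured on anti-human Fc sensors, then exposed to several concentrations of hMCAMHis analyte; affinity was derived by a 1:1 fitting model.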

The target in assay [2] is T2, human MCAM domain 1 (amino acids 19-129), Fc-tagged (human, UniProt P43121 19-129).
T2 construct: also called MCAM Fc domain 1
T2 sequence: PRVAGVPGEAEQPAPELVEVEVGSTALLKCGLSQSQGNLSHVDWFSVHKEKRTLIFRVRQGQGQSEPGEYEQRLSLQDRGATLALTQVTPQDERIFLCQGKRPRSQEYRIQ
The assay can be described thus: ForteBio domain mapping as in Example 8. For orientation: BLI is a label-free optical method that tracks binding on a fibre tip over time.

The target in assay [3] is T3, human MCAM domain 2 (amino acids 139-242), Fc-tagged (human, UniProt P43121 139-242).
T3 sequence: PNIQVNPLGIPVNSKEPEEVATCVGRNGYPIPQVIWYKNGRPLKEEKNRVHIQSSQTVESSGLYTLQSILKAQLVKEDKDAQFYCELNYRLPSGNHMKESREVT
The assay can be described thus: ForteBio domain mapping as in Example 8.

Assay [4] concerns the target T4, human MCAM (melanoma cell adhesion molecule) expressed on transfected CHO cells (human, UniProt P43121 24-646).
T4 construct: also called hMCAM; CD146
T4 chain: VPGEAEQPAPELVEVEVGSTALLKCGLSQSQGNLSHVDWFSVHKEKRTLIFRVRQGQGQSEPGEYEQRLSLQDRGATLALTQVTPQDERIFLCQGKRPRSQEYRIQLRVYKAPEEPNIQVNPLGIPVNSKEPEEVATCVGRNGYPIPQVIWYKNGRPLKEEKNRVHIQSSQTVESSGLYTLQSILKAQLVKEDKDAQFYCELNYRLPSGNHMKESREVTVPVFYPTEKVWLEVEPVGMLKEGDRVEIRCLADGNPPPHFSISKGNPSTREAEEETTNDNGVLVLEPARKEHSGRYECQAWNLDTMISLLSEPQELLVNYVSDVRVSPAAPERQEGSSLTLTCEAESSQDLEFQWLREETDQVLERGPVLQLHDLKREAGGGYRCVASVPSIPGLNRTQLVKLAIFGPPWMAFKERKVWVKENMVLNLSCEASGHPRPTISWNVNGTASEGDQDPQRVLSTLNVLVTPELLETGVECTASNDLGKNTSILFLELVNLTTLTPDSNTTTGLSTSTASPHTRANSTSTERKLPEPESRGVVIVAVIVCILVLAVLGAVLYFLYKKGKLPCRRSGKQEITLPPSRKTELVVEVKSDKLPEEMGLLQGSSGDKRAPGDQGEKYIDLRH
The assay can be described thus: flow cytometry, human MCAM CHO cells preincubated with antibody, competitor recombinant human laminin 411 at 20 ug/ml. The protocol:
The 87 independent mouse fusion clones and 26 independent rat fusion clones described in Example 10 above as being capable of (i) binding to human MCAM, and (ii) blocking the interaction between human MCAM and the α-4 chain of laminin were further characterized as follows. First, IC50 quantitation for the ability of the monoclonal antibody to block the binding of human MCAM to the α-4 chain of laminin was determined as follows. CHO cells expressing human MCAM were incubated with an anti-human MCAM antibody (at various concentrations) for 30 minutes at 4 degrees Celsius. […] Unbound laminin was then washed away, and the laminin bound to the surface of the cells was detected with fluorescently labeled anti-laminin antibodies. After washing, the amount of laminin bound to the surface was detected by flow cytometry, and IC50s were calculated based on the mean fluorescent intensity.
These six anti-MCAM monoclonal antibody clones are herein referred to as (i) the mouse anti-human MCAM monoclonal clones 1174.1.3, 1414.1.2, 1415.1.1, and 1749.1.3, and (ii) the rat anti-human MCAM monoclonal antibody clones 2120.4.19 and 2107.4.10. […] As such, each of these specific monoclonal antibodies was very capable of binding to human MCAM and inhibiting the interaction of cell-expressed human MCAM with its α-4 laminin binding ligand.
Background: Flow cytometry measures light scatter and fluorescence of single cells or particles in a stream.

The target in assay [5] is T1, recombinant hMCAM-His. The assay can be described thus: ForteBio Octet Red, hMCAM-His analyte; Expt. #2; vs rodent 1749. How it is done: The affinities were measured using the ForteBio Octet Red. Anti-human Fc sensors were used to capture the humanized antibodies, and several concentrations of hMCAMHis analyte were used to determine the affinity using a 1:1 fitting model.

Assay [6] has as its target T4, human MCAM (melanoma cell adhesion …). The experiment in a line: laminin/FACS on hMCAM CHO cells, competitor laminin 411; Expt#2; vs rodent 1749. A digest of the protocol: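 After a 30-45 minute incubation, cells were washed and bound laminin was detected with AF650-conjugated anti-laminin antibody. Laminin binding signal was measured by flow cytometry.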
In assay [7] the target is T1, recombinant hMCAM-His. The experiment in a line: competitive ELISA on hMCAM-His, competitor biotinylated rodent or chimeric 1749; Expt. #1; vs rodent 1749. The protocol: ELISA plates were coated with recombinant hMCAM-His, and blocked with casein buffer to prevent non-specific binding. Biotinylated rodent or chimeric antibody was added at a subsaturating concentration, in the presence or absence of 3× increasing concentrations of unlabeled competitor (humanized antibody, rodent, or chimeric). After washing to remove unbound antibody, streptavidin HRP was added to allow detection of the biotinylated antibody. The ELISA was developed with TMB substrate and the OD450 was measured. The IC50 of the unlabeled competitor was determined using the GraphPad Prism5 software.
For orientation: In an ELISA, binding on a coated surface is turned into a signal by an enzyme label.

B1: mouse anti-human MCAM monoclonal antibody clone 1749.1.3 (antibody, V domains shown)
VH: DVKLVESGGDLVKPGGSLKLSCAASGFTFSSYIMSWVRQTPEKRLEWVATISSGGSSTYYPDSVKGRFTISRDNAKNTLYLQMSSLKSEDTAMYYCTRDDDYDVKVFAYWGQGTLVTVSA
VL: DIVMSQSPSSLAVSAGEKVTMNCKSSRSLLNSRIRKNYLAWYQQKPGQSPKLLIYWASTRESGVPDRFTGSGSGTDFTLTISSVQAEDLAVYYCKQSYNLLTFGAGTKLELK
notes: mouse hybridoma antibody; also called rodent 1749; murine 1749.1.3 anti-MCAM antibody
For B1, the “fold over rodent (Forte affinity)” value in assay [1] and in assay [5] was 1 fold throughout. Besides, the binding result in assay [2] and in assay [3] was “no binding” in each case. In addition, the 50% inhibitory concentration (IC50) (as a rule, the point on the concentration scale where inhibition reaches its midpoint) in assay [4] came to 0.545 µg/mL. Besides, the “fold over rodent (blocking, laminin/FACS)” value in assay [6] was 1 fold. Moreover, the “fold over rodent (competitive ELISA)” value in assay [7] was determined as 1 fold.
